Measurements published in paper PMC8519809 (Cell Reports, 2021).

Biological target: SARS-CoV-1 S-2P protein (SARS-CoV-1 (human SARS coronavirus); …, stabilised)
Test: SPR

B1: Fab22 (Fab, V domains shown)
VH: EVQLQQPGPVLVKPGASVRMSCKASGYRITDNFMNWVKQSHGKSLEWIGIINPYNGGTKYNQKFKGKATLTVDTSSSTAYMELNSLTSEDSAVYYCTRVRGNDYHGRAMDYWGQGTSVTVSS
VL: DVVLTQTPLSLPVNIGDQASISCKSTKSLLNRDGFTFLDWYLQKPGQSPQLLIYLVSNRFSGVPDRFSGSGSGTDFTLKISRVEAEDLGVYYCFQSNYLFTFGSGTKLEIK
  Kd: 7.2 nM
